From doi:10.1101/436014, “Human telomere repeat binding factor TRF1 replaces TRF2 bound to shelterin core hub TIN2 when TPP1 is absent” (bioRxiv, 2018)

T1: Telomere Repeat-binding Factor 1 (TRF1), full-length human (human, UniProt P54274 1-439, Alexa Fluor 594 or Alexa Fluor 488 label where used labeled (site not stated); unlabeled where used as competitor and in MST)
T1 construct: TRF1, human, full-length; Removal of the His tag is not mentioned
T1 sequence (looked up): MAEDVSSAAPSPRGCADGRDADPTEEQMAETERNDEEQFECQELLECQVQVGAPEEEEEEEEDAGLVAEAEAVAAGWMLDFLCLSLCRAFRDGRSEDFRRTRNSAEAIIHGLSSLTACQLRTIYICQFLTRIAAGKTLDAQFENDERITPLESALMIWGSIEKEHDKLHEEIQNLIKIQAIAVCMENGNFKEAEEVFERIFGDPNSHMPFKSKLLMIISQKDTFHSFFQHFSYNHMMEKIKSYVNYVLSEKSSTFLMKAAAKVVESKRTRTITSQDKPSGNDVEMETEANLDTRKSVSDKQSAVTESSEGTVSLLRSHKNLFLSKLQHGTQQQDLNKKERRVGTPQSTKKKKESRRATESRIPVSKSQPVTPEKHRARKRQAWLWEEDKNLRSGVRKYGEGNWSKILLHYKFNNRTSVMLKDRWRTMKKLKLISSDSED

T2: Telomere Repeat-binding Factor 2 (TRF2), full-length human (human, UniProt Q15554 1-542, Alexa Fluor 594 or Alexa Fluor 488 label where used labeled (site not stated); unlabeled where used as competitor and in MST)
T2 construct: TRF2, human, full-length; Removal of the His tag is not mentioned
T2 sequence (looked up): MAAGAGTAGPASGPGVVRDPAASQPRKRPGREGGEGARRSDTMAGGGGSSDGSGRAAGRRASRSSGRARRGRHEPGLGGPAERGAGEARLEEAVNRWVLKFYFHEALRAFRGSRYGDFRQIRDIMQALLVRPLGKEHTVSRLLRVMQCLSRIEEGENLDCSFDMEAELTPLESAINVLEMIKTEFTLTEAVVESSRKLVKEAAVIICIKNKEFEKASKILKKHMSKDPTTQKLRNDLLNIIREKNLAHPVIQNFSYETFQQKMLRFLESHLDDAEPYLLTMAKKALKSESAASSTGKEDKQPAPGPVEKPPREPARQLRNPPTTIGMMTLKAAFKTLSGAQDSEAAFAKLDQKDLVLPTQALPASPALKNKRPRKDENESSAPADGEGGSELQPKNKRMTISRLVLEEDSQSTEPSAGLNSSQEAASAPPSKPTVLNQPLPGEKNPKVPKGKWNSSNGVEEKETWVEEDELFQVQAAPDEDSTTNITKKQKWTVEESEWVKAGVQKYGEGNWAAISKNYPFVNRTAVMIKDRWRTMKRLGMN

B1: R5 telomeric duplex (five repeats) (dsDNA)
DNA 1: GTTAGGGTTAGGGTTAGGGTTAGGGTTAGGGTTAG
DNA 2: CTAACCCTAACCCTAACCCTAACCCTAACCCTAAC
B2: TRF1-Interacting Nuclear factor 2 (TIN2), full-length human (natural protein)
chain: ATPLVAGPAALRFAAAASWQVVRGRCVEHFPRVLEFLRSLRAVAPGLVRYRHHERLCMGLKAKVVVELILQGRPWAQVLKALNHHFPESGPIVRDPKATKQDLRKILEAQETFYQQVKQLSEAPVDLASKLQELEQEYGEPFLAAMEKLLFEYLCQLEKALPTPQAQQLQDVLSWMQPGVSITSSLAWRQYGVDMGWLLPECSVTDSVNLAEPMEQNPPQQQRLALHNPLPKAKPGTHLPQGPSSRTHPEPLAGRHFNLAPLGRRRVQSQWASTRGGHKERPTVMLFPFRNLGSPTQVISKPESKEEHAIYTADLAMGTRAASTGKSKSPCQTLGGRALKENPVDLPATEQKENCLDCYMDPLRLSLLPPRARKPVCPPSLCSSVITIGDLVLDSDEEENGQGEGKESLENYQKTKFDTLIPTLCEYLPPSGHGAIPVSSCDCRDSSRPL
modifications: Alexa Fluor 488 label where used labeled (site not stated); unlabeled in the TRF1/TRF2 cross-correlation experiment and in SEC

Legend:
[1] = molecular target: TRF1;TIN2 (human;human, UniProt P54274;Q9BSI4 1-439;1-451, |); experiment: fluorescence anisotropy; TRF1 5 uM:TIN2 2.5 uM (2:1) stock titrated into 7.5 nM DNA; KD only in figure; 50 mM sodium phosphate pH 7.0, 50 mM NaCl, 25 C; 7.5 nM Alexa Fluor 488-labeled DNA; 2 min incubation per titration step; conditions: protein: recombinant;recombinant; chain copies: 2;1; (described only as annealed with its complementary strand)
[2] = molecular target: T1, Telomere Repeat-binding Factor 1 …; experiment: MST; Alexa Fluor 488 labeled TIN2 incubated with different concentrations of TRF1 or TRF2; 50 mM sodium phosphate pH 7.0, 50 mM NaCl; 12 °C; apparent KD; conditions: both partners purified
[3] = molecular target: T2, Telomere Repeat-binding Factor 2 …; experiment: as above; conditions: both partners purified

Binder	binding result [1]	Kd [2]	Kd [3]
B1	binds		
B2		240 nM	360 nM
